Results on 5 molecules are retold here after patent US6323185, “Anti-viral guanosine-rich oligonucleotides and method of treating HIV” (The United States of America as represented by the …).

The target in data set [1] is T1, HIV-1 integrase wild-type (IN1-288) (HIV-1, UniProt P12497 P12497:1148-1435). In words: inhibition; first activity column (headed strand transfer); other column 0.100. Particulars: G4.
Data set [2] has as its target HIV-1 integrase wild-type (IN1-288) (HIV-1, UniProt P12497 P12497:1148-1435). In words: UV crosslinking, about 39 kDa complex; not competed by excess T30177 added after preincubation. The settings on record: label: 5'-32P.
The target of the next data set is CD4 (UniProt P01730 P01730:26-396). As to the kind of experiment: competition; ID50, oligo with immobilized CD4. The settings on record: tags: immobilized, gp120 capture ELISA kit. For orientation: ELISA stands for enzyme-linked immunosorbent assay.
Data set [3] addresses T2, gp120 envelope glycoprotein (HIV-1, UniProt P04578 P04578:33-511). In words: competition; ID50, gp120/CD4 ELISA; PD oligos did not inhibit V3 Mab binding. Particulars: tags: gp120 capture ELISA kit.
Data set [4] has as its target T2, gp120 envelope glycoprotein. In words: competition; ID50, inhibition of gp120 binding to CD4, oligo preincubated with gp120. Particulars: tags: gp120 capture ELISA kit.
Data set [5] concerns the target T1, HIV-1 integrase wild-type (IN1-288). In words: inhibition; 3'-processing; strand transfer 0.046 uM; Table D-1 79 nM / 49 nM; FIG. 30 55 nM; Mn. The settings on record: intramolecular G4 (G-octet).
Data set [6] addresses T3, HIV-1 reverse transcriptase (HIV-1 (BH10), UniProt P03366;P03366 P03366:600-1159,P03366:600-1039). As to the kind of experiment: inhibition; gapped duplex DNA template; duplicate 10.0 uM. Particulars: intramolecular G4 (G-octet).
In data set [7] the target is T3, HIV-1 reverse transcriptase. In words: inhibition; primed ribosomal RNA template; duplicate 0.36 uM. The settings on record: intramolecular G4 (G-octet).
The target is the same in data set [8]. As to the kind of experiment: inhibition; poly(rA).p(dT)12-18 template; duplicate 4.2 uM. Particulars: intramolecular G4 (G-octet).

B1: T30745 (ssDNA)
DNA: GTGGTGGGTGGGCGGGT
modifications: PS at first and last linkages
What is called IC50 is the concentration that gives 50% inhibition. Low values mean inhibition by little substance, high ones a need for much substance. On to B1, for which, in data set [1], the IC50 turned out to be 0.1 µM.

B2: HIV-1 U5 LTR 21-mer duplex (AE118/AE117) (dsDNA)
DNA 1: GTGTGGAAAATCTCTAGCAGT
DNA 2: ACTGCTAGAGATTTTCCACAC
Regarding B2, in data set [2], the binding result is listed as “binds”.

B3: I100-07 (ssDNA)
DNA: GTGGTGGGTGGGTGGGTGGTGGGTGGTGGTTGTGGGTGGGTGGTG
modifications: phosphodiester
With B3, the IC50 turned out to be 4.25 µM with CD4 and 0.8 µM in [3].

B4: I100-00 (ssDNA)
DNA: GTTGGGGGTTGTTGGTGGGGTGGTGG
modifications: phosphodiester
With B4, the half-inhibitory concentration (IC50) in data set [4] was 3.5 µM; with CD4, 18 µM.

B5: T30177 (AR177, Zintevir) (ssDNA)
DNA: GTGGTGGGTGGGTGGGT
modifications: PS at first and last internucleoside linkages, 3'-OH
Take B5: the IC50 in data set [5] was found to be 0.092 µM; in [6] it was 8 µM; in [7] it was 1.2 µM; in [8], 11 µM.
